The source of these data is publication PMC3711439, “Mechanisms of in vivo binding site selection of the hematopoietic master transcription factor PU.1”.

The chains are these.
B1: PU.1 motif oligo 35 (dsDNA)
DNA 1: ACGTTGCTTCCTCTTTACGT
DNA 2: ACGTAAAGAGGAAGCAACGT
B2: PU.1 motif oligo 46 (dsDNA)
DNA 1: ACGTCACTTCCTCCAGACGT
DNA 2: ACGTCTGGAGGAAGTGACGT
B3: PU.1 motif oligo 11 (dsDNA)
DNA 1: ACGTCACTTCCTCAAAACGT
DNA 2: ACGTTTTGAGGAAGTGACGT
B4: PU.1 motif oligo 44 (dsDNA)
DNA 1: ACGTCACTTCTCTTTTACGT
DNA 2: ACGTAAAAGAGAAGTGACGT
B5: PU.1 motif oligo 41 (dsDNA)
DNA 1: ACGTCACTTCCTAAATACGT
DNA 2: ACGTATTTAGGAAGTGACGT
B6: PU.1 motif oligo 5 (dsDNA)
DNA 1: ACGTCACTTCCTCTCTACGT
DNA 2: ACGTAGAGAGGAAGTGACGT
B7: PU.1 motif oligo 50 (dsDNA)
DNA 1: ACGTCTCTTCCCCTCTACGT
DNA 2: ACGTAGAGGGGAAGAGACGT
B8: PU.1 motif oligo 43 (dsDNA)
DNA 1: ACGTCACTTCCTCTGGACGT
DNA 2: ACGTCCAGAGGAAGTGACGT
B9: PU.1 motif oligo 39 (dsDNA)
DNA 1: ACGTCGCTTCCTCTCCACGT
DNA 2: ACGTGGAGAGGAAGCGACGT
B10: PU.1 motif oligo 18 (dsDNA)
DNA 1: ACGTCACTTCCTCAACACGT
DNA 2: ACGTGTTGAGGAAGTGACGT
B11: PU.1 motif oligo 36 (dsDNA)
DNA 1: ACGTCCCTTCCTCTTTACGT
DNA 2: ACGTAAAGAGGAAGGGACGT
B12: PU.1 motif oligo 12 (dsDNA)
DNA 1: ACGTCACTTCCTTTCTACGT
DNA 2: ACGTAGAAAGGAAGTGACGT
B13: PU.1 motif oligo 56 (dsDNA)
DNA 1: ACGTCGTTTCCTCTTTACGT
DNA 2: ACGTAAAGAGGAAACGACGT
B14: PU.1 motif oligo 57 (dsDNA)
DNA 1: ACGTGAGTTCCTTTAAACGT
DNA 2: ACGTTTAAAGGAACTCACGT
B15: PU.1 motif oligo 34 (dsDNA)
DNA 1: ACGTCACTTCCTCCCCACGT
DNA 2: ACGTGGGGAGGAAGTGACGT
B16: PU.1 motif oligo 37 (dsDNA)
DNA 1: ACGTCACTTCCTGCTAACGT
DNA 2: ACGTTAGCAGGAAGTGACGT
B17: PU.1 motif oligo 23 (dsDNA)
DNA 1: ACGTCACTTCCCCAAAACGT
DNA 2: ACGTTTTGGGGAAGTGACGT
B18: PU.1 motif oligo 14 (dsDNA)
DNA 1: ACGTCACTTCCTCTGTACGT
DNA 2: ACGTACAGAGGAAGTGACGT
B19: PU.1 motif oligo 51 (dsDNA)
DNA 1: ACGTCACTTCCTTGTCACGT
DNA 2: ACGTGACAAGGAAGTGACGT
B20: PU.1 motif oligo 47 (dsDNA)
DNA 1: ACGTCGCTTCCTCCTCACGT
DNA 2: ACGTGAGGAGGAAGCGACGT
B21: PU.1 motif oligo 15 (dsDNA)
DNA 1: ACGTGACTTCCTCTCTACGT
DNA 2: ACGTAGAGAGGAAGTCACGT
B22: PU.1 motif oligo 2 (dsDNA)
DNA 1: ACGTCACTTCCTCATTACGT
DNA 2: ACGTAATGAGGAAGTGACGT
B23: PU.1 motif oligo 24 (dsDNA)
DNA 1: ACGTAACTTCCTCAATACGT
DNA 2: ACGTATTGAGGAAGTTACGT
B24: PU.1 motif oligo 3 (dsDNA)
DNA 1: ACGTCACTTCCCCTTTACGT
DNA 2: ACGTAAAGGGGAAGTGACGT
B25: PU.1 motif oligo 4 (dsDNA)
DNA 1: ACGTCACTTCCTCTATACGT
DNA 2: ACGTATAGAGGAAGTGACGT
B26: PU.1 motif oligo 32 (dsDNA)
DNA 1: ACGTAACTTCCTCCTAACGT
DNA 2: ACGTTAGGAGGAAGTTACGT
B27: PU.1 motif oligo 27 (dsDNA)
DNA 1: ACGTCTCTTCCTCTTTACGT
DNA 2: ACGTAAAGAGGAAGAGACGT
B28: PU.1 motif oligo 49 (dsDNA)
DNA 1: ACGTCAGTTCCTCCTGACGT
DNA 2: ACGTCAGGAGGAACTGACGT
B29: PU.1 motif oligo 28 (dsDNA)
DNA 1: ACGTTACTTCCTTTTAACGT
DNA 2: ACGTTAAAAGGAAGTAACGT
B30: PU.1 motif oligo 42 (dsDNA)
DNA 1: ACGTCACTTCCGCCTCACGT
DNA 2: ACGTGAGGCGGAAGTGACGT
B31: PU.1 motif oligo 6 (dsDNA)
DNA 1: ACGTGACTTCCTCTTTACGT
DNA 2: ACGTAAAGAGGAAGTCACGT
B32: PU.1 motif oligo 31 (dsDNA)
DNA 1: ACGTCAGTTCCTCAAAACGT
DNA 2: ACGTTTTGAGGAACTGACGT
B33: PU.1 motif oligo 33 (dsDNA)
DNA 1: ACGTAACTTCCCCAATACGT
DNA 2: ACGTATTGGGGAAGTTACGT
B34: PU.1 motif oligo 19 (dsDNA)
DNA 1: ACGTCAGTTCCTCTTCACGT
DNA 2: ACGTGAAGAGGAACTGACGT
B35: PU.1 motif oligo 20 (dsDNA)
DNA 1: ACGTAACTTCCCCATTACGT
DNA 2: ACGTAATGGGGAAGTTACGT
B36: PU.1 motif oligo 30 (dsDNA)
DNA 1: ACGTCAGTTCCTGTTTACGT
DNA 2: ACGTAAACAGGAACTGACGT
B37: PU.1 motif oligo 16 (dsDNA)
DNA 1: ACGTAACTTCCTCATAACGT
DNA 2: ACGTTATGAGGAAGTTACGT
B38: PU.1 motif oligo 48 (dsDNA)
DNA 1: ACGTCACTTCTGCTTTACGT
DNA 2: ACGTAAAGCAGAAGTGACGT
B39: PU.1 motif oligo 21 (dsDNA)
DNA 1: ACGTGAGTTCCTCTTTACGT
DNA 2: ACGTAAAGAGGAACTCACGT
B40: PU.1 motif oligo 25 (dsDNA)
DNA 1: ACGTCACTTCCGCTTCACGT
DNA 2: ACGTGAAGCGGAAGTGACGT
B41: PU.1 motif oligo 29 (dsDNA)
DNA 1: ACGTGACTTCCTGTTTACGT
DNA 2: ACGTAAACAGGAAGTCACGT
B42: PU.1 motif oligo 22 (dsDNA)
DNA 1: ACGTGACTTCCTCATCACGT
DNA 2: ACGTGATGAGGAAGTCACGT
B43: PU.1 motif oligo 45 (dsDNA)
DNA 1: ACGTCATTTCCTCCTTACGT
DNA 2: ACGTAAGGAGGAAATGACGT
B44: PU.1 motif oligo 13 (dsDNA)
DNA 1: ACGTCACTTCCTCTACACGT
DNA 2: ACGTGTAGAGGAAGTGACGT
B45: PU.1 motif oligo 53 (dsDNA)
DNA 1: ACGTCACTTCCATTCTACGT
DNA 2: ACGTAGAATGGAAGTGACGT
B46: PU.1 motif oligo 52 (dsDNA)
DNA 1: ACGTGCCTTCCTCTTTACGT
DNA 2: ACGTAAAGAGGAAGGCACGT
B47: PU.1 motif oligo 54 (dsDNA)
DNA 1: ACGTCTCTTCCTTTCTACGT
DNA 2: ACGTAGAAAGGAAGAGACGT
B48: PU.1 motif oligo 55 (dsDNA)
DNA 1: ACGTCACTTCCCTCCCACGT
DNA 2: ACGTGGGAGGGAAGTGACGT
B49: PU.1 motif oligo 1 (dsDNA)
DNA 1: ACGTCACTTCCTCTTTACGT
DNA 2: ACGTAAAGAGGAAGTGACGT
B50: PU.1 motif oligo 40 (dsDNA)
DNA 1: ACGTCAGTTCCTTAAAACGT
DNA 2: ACGTTTTAAGGAACTGACGT
B51: PU.1 motif oligo 26 (dsDNA)
DNA 1: ACGTAAGTTCCTCATTACGT
DNA 2: ACGTAATGAGGAACTTACGT
B52: PU.1 motif oligo 38 (dsDNA)
DNA 1: ACGTCGCTTCCCCTTCACGT
DNA 2: ACGTGAAGGGGAAGCGACGT
B53: PU.1 motif oligo 17 (dsDNA)
DNA 1: ACGTCACTTCCTCCCTACGT
DNA 2: ACGTAGGGAGGAAGTGACGT

The target of this data set is PU.1 (human, UniProt P17947 1-270). As to the kind of experiment: MST; MST: 20 mM Tris-HCl pH 7.6, 1.5 mM MgCl2, 0.5 mM EGTA, 10% glycerol, 300 mM KCl, 10 mM DTT, 25 C; 50 nM Cy3-dsDNA, PU.1 1:1 dilutions from 23 uM. To be noted: protein: recombinant; tags: N-terminal His-tag; label: Cy3 on upper strand.
On to B1, for which the Kd came to 414 ± 92 nM. For B2 the value was 634 ± 12 nM.

In the case of B3, the Kd came out at 242 ± 5 nM. Under B4 stands 770 ± 174 nM; under B5, 620 ± 147 nM; under B6, 270 ± 23 nM. Under B7 stands 2120 ± 890 nM; under B8, 822 ± 289 nM; under B9, 983 ± 94 nM.

Take B10: the Kd was determined as 452 ± 107 nM. For B11 the value was 682 ± 71 nM. For B12 the value was 588 ± 95 nM. In the case of B13, the Kd stood at 670 ± 145 nM. As to B14, the Kd turned out to be 1660 ± 170 nM. Under B15 stands 690 ± 134 nM; under B16, 794 ± 112 nM; under B17, 362 ± 103 nM. For the molecule B18, the Kd was determined as 658 ± 267 nM. Under B19 stands 786 ± 41 nM; under B20, 757 ± 186 nM; under B21, 324 ± 45 nM. For B22 the value was 272 ± 36 nM; for B23, 462 ± 77 nM; for B24, 454 ± 61 nM. For B25 the value was 413 ± 84 nM; for B26, 464 ± 77 nM. For B27, the Kd stood at 719 ± 116 nM. Under B28 stands 929 ± 222 nM; under B29, 422 ± 29 nM.

With B30, the Kd worked out at 656 ± 191 nM. For B31 the value was 190 ± 31 nM. Under B32 stands 599 ± 142 nM. Under B33 stands 611 ± 58 nM.

Take B34: the Kd turned out to be 596 ± 7 nM. For B35, the Kd turned out to be 234 ± 21 nM. For B36 the value was 558 ± 77 nM. Under B37 stands 444 ± 55 nM. For B38 the value was 600 ± 7 nM. For B39, the Kd turned out to be 298 ± 15 nM. Under B40 stands 613 ± 70 nM; under B41, 361 ± 54 nM. For B42 the value was 532 ± 11 nM; for B43, 828 ± 8 nM; for B44, 568 ± 283 nM. Under B45 stands 4600 ± 2570 nM. As for B46, the Kd turned out to be 887 ± 104 nM. For B47 the value was 1700 ± 440 nM; for B48, 1010 ± 192 nM; for B49, 164 ± 17 nM. For B50 the value was 808 ± 97 nM. On to B51, for which the Kd amounted to 490 ± 141 nM. For B52 the value was 893 ± 116 nM; for B53, 470 ± 26 nM.

Broadly, the Kd is the equilibrium constant for the complex coming apart.
